Measurements taken from paper PMC10831263 (The Journal of Biological Chemistry, 2023).

T1: GST-HERC2 (2540–2700th) (human, UniProt O95714 2540-2700)
T1 construct: also called HECT and RLD domains-containing E3 ubiquitin protein ligase 2; not shown: GST, N-terminal, kept
T1 sequence (looked up): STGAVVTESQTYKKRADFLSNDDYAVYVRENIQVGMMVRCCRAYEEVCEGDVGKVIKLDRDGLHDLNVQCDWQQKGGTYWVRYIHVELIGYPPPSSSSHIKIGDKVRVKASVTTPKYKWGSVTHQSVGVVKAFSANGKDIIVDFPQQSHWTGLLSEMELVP

B1: his-tagged NCOA4 (383–522nd) C416A (domain or fragment, human, UniProt Q13772-1 383-522, looked up)
chain: SMVTEDWLVQNHQDPCKVEEVCRANEPCTSFAEAVCDENCEKEALYKWLLKKEGKDKNGMPVEPKPEPEKHKDSLNMWLCPRKEVIEQTKAPKAMTPSRIADSFQVIKNSPLSEWLIRPPYKEGSPKEVPGTEDRAGKQK
B2: his-tagged NCOA4 (383–522nd) C404A (domain or fragment, human, UniProt Q13772-1 383-522, looked up)
chain: SMVTEDWLVQNHQDPCKVEEVARANEPCTSFAECVCDENCEKEALYKWLLKKEGKDKNGMPVEPKPEPEKHKDSLNMWLCPRKEVIEQTKAPKAMTPSRIADSFQVIKNSPLSEWLIRPPYKEGSPKEVPGTEDRAGKQK
B3: his-tagged NCOA4 (383–522nd) C418A (domain or fragment, human, UniProt Q13772-1 383-522, looked up)
chain: SMVTEDWLVQNHQDPCKVEEVCRANEPCTSFAECVADENCEKEALYKWLLKKEGKDKNGMPVEPKPEPEKHKDSLNMWLCPRKEVIEQTKAPKAMTPSRIADSFQVIKNSPLSEWLIRPPYKEGSPKEVPGTEDRAGKQK
B4: his-tagged NCOA4 (383–522nd) C422A (domain or fragment, human, UniProt Q13772-1 383-522, looked up)
chain: SMVTEDWLVQNHQDPCKVEEVCRANEPCTSFAECVCDENAEKEALYKWLLKKEGKDKNGMPVEPKPEPEKHKDSLNMWLCPRKEVIEQTKAPKAMTPSRIADSFQVIKNSPLSEWLIRPPYKEGSPKEVPGTEDRAGKQK
B5: his-tagged NCOA4 (383–522nd) C462A (domain or fragment, human, UniProt Q13772-1 383-522, looked up)
chain: SMVTEDWLVQNHQDPCKVEEVCRANEPCTSFAECVCDENCEKEALYKWLLKKEGKDKNGMPVEPKPEPEKHKDSLNMWLAPRKEVIEQTKAPKAMTPSRIADSFQVIKNSPLSEWLIRPPYKEGSPKEVPGTEDRAGKQK
B6: his-tagged NCOA4 (383–522nd) C410A (domain or fragment, human, UniProt Q13772-1 383-522, looked up)
chain: SMVTEDWLVQNHQDPCKVEEVCRANEPATSFAECVCDENCEKEALYKWLLKKEGKDKNGMPVEPKPEPEKHKDSLNMWLCPRKEVIEQTKAPKAMTPSRIADSFQVIKNSPLSEWLIRPPYKEGSPKEVPGTEDRAGKQK
B7: his-tagged NCOA4 (383–522nd) C398S (domain or fragment, human, UniProt Q13772-1 383-522, looked up)
chain: SMVTEDWLVQNHQDPSKVEEVCRANEPCTSFAECVCDENCEKEALYKWLLKKEGKDKNGMPVEPKPEPEKHKDSLNMWLCPRKEVIEQTKAPKAMTPSRIADSFQVIKNSPLSEWLIRPPYKEGSPKEVPGTEDRAGKQK
notes: C398A was insoluble, so C398S was made in its place
B8: his-tagged NCOA4 (383–522nd) recombinant protein, WT (domain or fragment, human, UniProt Q13772-1 383-522, looked up)
chain: SMVTEDWLVQNHQDPCKVEEVCRANEPCTSFAECVCDENCEKEALYKWLLKKEGKDKNGMPVEPKPEPEKHKDSLNMWLCPRKEVIEQTKAPKAMTPSRIADSFQVIKNSPLSEWLIRPPYKEGSPKEVPGTEDRAGKQK
notes: Expressed from pQE80L; also called purified NCOA4; not shown: His6, N-terminal, kept
B9: his-tagged NCOA4 (383–522nd) 4C > A (domain or fragment, human, UniProt Q13772-1 383-522, looked up)
chain: SMVTEDWLVQNHQDPCKVEEVARANEPATSFAEAVCDENAEKEALYKWLLKKEGKDKNGMPVEPKPEPEKHKDSLNMWLCPRKEVIEQTKAPKAMTPSRIADSFQVIKNSPLSEWLIRPPYKEGSPKEVPGTEDRAGKQK
notes: also called four cysteine residues substitution by alanine; not shown: His6, N-terminal, kept

Biological target: the molecule itself
Test: nonreducing gel electrophoresis; purified his-tagged NCOA4 (383–522nd) WT or mutants on a nonreducing gel, with or without β-ME (10 mM) or DTT (5 mM); the reductants converted the dimer into monomers
Conditions: not given

Binding result, binds:
B1
B2
B3
B4
B5
B6
B7

biological target: T2, GST-tagged FTH (human, UniProt P02794 1-183); test: pull-down; His-pulldown; His-tagged NCOA4 (383–522nd) WT or mutants and GST-tagged FTH, each expressed in E. coli and purified; read by immunoblotting; conditions: both partners purified
T2 construct: ferritin heavy chain 1 (FTH), human; also called GST-FTH; ferritin heavy chain 1; not shown: GST, N-terminal, kept
T2 sequence (P02794 whole entry): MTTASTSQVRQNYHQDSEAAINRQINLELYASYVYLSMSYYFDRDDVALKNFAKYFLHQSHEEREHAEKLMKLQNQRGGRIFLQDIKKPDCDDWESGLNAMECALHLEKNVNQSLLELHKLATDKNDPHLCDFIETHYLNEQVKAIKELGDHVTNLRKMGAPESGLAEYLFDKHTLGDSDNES

Binding result, binds:
B8
B9

biological target: T1, GST-HERC2 (2540–2700th); test: pull-down; GST pull-down of HERC2 with Fe-S-bound NCOA4 (383–522nd): freshly purified or reconstituted; conditions: both partners purified

Binding result, binds:
B8
